Measurements: US20220409711A1 (published 2022)

Molecular target: T1, Hormad1 peptide on HLA-A*02:01 (human)
T1 peptide: YLDDLCVKI
Assay: multimer staining

B1: Hormad1 CTL A12 TCR (TRAV4*01 F, TRBV13*01 F) (TCR, V domains shown)
Valpha: LAKTTQPISMDSYEGQEVNITCSHNNIATNDYITWYQQFPSQGPRFIIQGYKTKVTNEVASLFIPADRKSSTLSLPRVSLSDTAVYYCLVGARGTALIFGKGTTLSVSS
Vbeta: AAGVIQSPRHLIKEKRETATLKCYPIPRHDTVYWYQQGPGQDPQFLISFYEKMQSDKGSIPDRFSAQQFSDYHSELNMSSLELGDSALYFCASSPTGQGSYEQYFGPGTRLTVT
binding result: recognises
